Reference: patent US20230129812A1, “COMPOSITIONS AND METHODS FOR TREATING PULMONARY HYPERTENSION” (Acceleron Pharma Inc., priority 2020, published 2023)

Assays:
activin A = molecular target: T1, activin A (Homo sapiens, UniProt P08476); experiment: A-204 reporter gene assay, pGL3(CAGA)12 luciferase; type: cell-based; details: A-204 reporter gene assay
T1 sequence (P08476 311-426): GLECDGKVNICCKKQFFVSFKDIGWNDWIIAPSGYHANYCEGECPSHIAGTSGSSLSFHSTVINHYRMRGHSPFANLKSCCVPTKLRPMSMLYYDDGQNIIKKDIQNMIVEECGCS
In short: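 Human rhabdomyosarcoma A-204 cells transfected with SMAD-responsive pGL3(CAGA)12 luciferase reporter (optionally with pRLCMV). Ligand in medium + 0.1% BSA, preincubated ~1 h with Fc-fusion inhibitor before addition to cells; after ~6 h cells lysed and luciferase activity measured.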

[1] = test system: rat model of pulmonary arterial hypertension (PAH), monocrotaline-induced; experiment: Monocrotaline (MCT) rat model of pulmonary arterial hypertension; type: in vivo, Sprague Dawley rats; details: MCT rats, compared to monocrotaline treated rats (vehicle)
Description: The effects of an ActRIIA-mFc fusion protein (ActRIIA-mFc homodimer as described in Example 1), an ALK4-Fc-ActRIIB-Fc heterodimer (as described in Examples 12 and 13), and sildenafil (a phosphodiesterase-5 inhibitor approved for the treatment of PAH) were examined in a rat model of pulmonary arterial hypertension (PAH). In this model, Sprague Dawley rats received a […] injection of monocrotaline (MCT) to induce PAH 24 hours prior to start of therapy.
Rats were separated into different treatment groups (10 mice per group): 1) treatment with MCT (60 mg/kg administered i.p. as a single dose at day 1 of study) and Tris buffered saline (i.p. as 1 ml/kg, every three days) (vehicle treatment group), 2) treatment with an ActRIIA-mFc polypeptide (10 mg/kg administered i.p. every three days) and MCT (60 mg/kg administered i.p. as a single dose at day 1 of study), 3) treatment with an ALK4-Fc:ActRIIB-Fc heterodimer (10 mg/kg administered i.p. every three days) and MCT (60 mg/kg administered i.p. as a single dose at day 1 of study), 4) treatment with sildenafil (30 mg/kg administered orally twice daily) and MCT (60 mg/kg administered i.p. as a single dose at day 1 of study), and 5) control rats (Tris buffered saline administered i.p. as 1 ml/kg, every three days). Rats were treated for 28 days. Body weights were recorded prior to first dose on Day 1 and then weekly throughout the study.
On day 28, rats were anesthetized by an intraperitoneal injection of ketamine/xylazine (80/10 mg/kg). An incision was made in the neck, and a jugular vein was isolated and ligated anteriorly. A fluid-filled pressure catheter was introduced into the right jugular vein to measure pulmonary artery pressure (PAP). Another incision was made in the inguinal region, and femoral artery was isolated and ligated anteriorly. […] Mean arterial pressure and right PAP were monitored using the Notocord HEM (Croissy sur Seine, Frnace) v3.5 data capture system for approximately 5-10 minutes until stable measurements were obtained. During the measurements, rats were maintained at approximately 37° C. on a heating pad and body temperature was monitored throughout the procedure with a rectal temperature probe. […] Hypertrophy was assessed, in part, by calculating RV/LV+S. The lungs were also weighed.
Similar trends were observed on vessel muscularity based on histopathologic scoring. […] Pulmonary arterioles from vehicle treated rats were determined to be 62.3% completely muscularized, 36.4% partially muscularized, and 1.4% non-muscularized. […] Histopathological scoring of smooth muscle hypertrophy of pulmonary arterioles were also recorded as follows: 0 (normal), 1 (minimal), 2 (mild), 3 (moderate), or 4 (marked).

BMP9 = molecular target: T2, BMP9 (Homo sapiens, UniProt Q9UK05); experiment: A-204 Reporter Gene Assay (Example 13); type: cell-based
T2 sequence (Q9UK05 320-429): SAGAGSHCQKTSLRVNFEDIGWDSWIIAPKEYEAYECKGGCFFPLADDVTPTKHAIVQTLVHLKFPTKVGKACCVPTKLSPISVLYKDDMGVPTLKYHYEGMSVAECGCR
Excerpt: (§1) In addition, an A-204 Reporter Gene Assay was used to evaluate the effects of ALK4-Fc:ActRIIB-Fc heterodimer and ActRIIB-Fc:ActRIIB-Fc homodimer on signaling by activin A, activin B, GDF11, GDF8, BMP10, and BMP9. Cell line: Human Rhabdomyosarcoma (derived from muscle). Reporter vector: pGL3(CAGA)12 (as described in Dennler et al, 1998, EMBO 17: 3091-3100). The CAGA12 motif is present in TGFβ responsive genes (PAI-1 gene), so this vector is of general use for factors signaling through Smads. An exemplary A-204 Reporter Gene Assay is outlined below. • Day 1: Split A-204 cells into 48-well plate. • Day 2: A-204 cells transfected with 10 ug pGL3(CAGA)12 or pGL3(CAGA)12(10 ug)+pRLCMV (1 ug) and Fugene. • Day 3: Add factors (diluted into medium+0.1% BSA). Inhibitors need to be pre-incubated with Factors for about one hr before adding to cells. About six hrs later, cells are rinsed with PBS and then lysed.
(§2) Following the above steps, a Luciferase assay was performed.

activin B = molecular target: T3, activin B (Homo sapiens, UniProt P09529); experiment: A-204 Reporter Gene Assay (Example 13); type: cell-based
T3 sequence (P09529 293-407): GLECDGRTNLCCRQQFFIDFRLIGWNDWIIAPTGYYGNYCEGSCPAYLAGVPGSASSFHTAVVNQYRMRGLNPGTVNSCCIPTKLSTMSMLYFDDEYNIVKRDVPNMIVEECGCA
Excerpt: as §1, §2

B1: ALK4-Fc:ActRIIB-Fc heterodimer: heteromeric complex of extracellular domains of human ActRIIB and human ALK4, each separately fused to an Fc domain with a linker (protein)
chain 1: GRGEAETRECIYYNANWELERTNQSGLERCEGEQDKRLHCYASWRNSSGTIELVKKGCWLDDFNCYDRQECVATEENPQVYFCCCEGNFCNERFTHLPEAGGPEVTYEPPPTAPTGGGTHTCPPCPAPELLGGPSVFLFPPKPKDTLMISRTPEVTCVVVDVSHEDPEVKFNWYVDGVEVHNAKTKPREEQYNSTYRVVSVLTVLHQDWLNGKEYKCKVSNKALPAPIEKTISKAKGQPREPQVYTLPPSRKEMTKNQVSLTCLVKGFYPSDIAVEWESNGQPENNYKTTPPVLKSDGSFFLYSKLTVDKSRWQQGNVFSCSVMHEALHNHYTQKSLSLSPGK
chain 2: SGPRGVQALLCACTSCLQANYTCETDGACMVSIFNLDGMEHHVRTCIPKVELVPAGKPFYCLSSEDLRNTHCCYTDYCNRIDLRVPSGHLKEPEHPSMWGPVETGGGTHTCPPCPAPELLGGPSVFLFPPKPKDTLMISRTPEVTCVVVDVSHEDPEVKFNWYVDGVEVHNAKTKPREEQYNSTYRVVSVLTVLHQDWLNGKEYKCKVSNKALPAPIEKTISKAKGQPREPQVYTLPPSREEMTKNQVSLTCLVKGFYPSDIAVEWESNGQPENNYDTTPPVLDSDGSFFLYSDLTVDKSRWQQGNVFSCSVMHEALHNHYTQKSLSLSPG
- inhibition of activin A signaling (activin A): potent inhibitors
- improvement in body weight ([1]; 28 days): +5.1%
- decrease of right heart hypertrophy ([1]; day 28, RV/LV+S): 39.6%
- decrease of lung weight ([1]; day 28): 19.0%
- reduction of elevated PAP ([1]; day 28): 44.6%
- inhibition of BMP9 signaling (BMP9): significantly reduced
- inhibition of activin B signaling (activin B): potent inhibitors
